Test results taken from patent US20030228623A1.
Several values for one entry are separate records, joined by “and”; a condition that tells them apart may be missing. Identical values can stand only once.

Columns and labels:
[1] = biological target: streptavidin (streptavidin-coated magnetic beads, Dynal) (UniProt P22629); assay: spores incubated in vitro with BirA, biotin and ATP, then streptavidin-coated beads; input 417,600
[2] = biological target: streptavidin (streptavidin-coated magnetic beads, Dynal) (UniProt P22629); assay: spores (in vivo), streptavidin-coated magnetic beads, washed, plated; input 843,900
[3] = biological target: streptavidin (streptavidin-coated magnetic beads, Dynal) (UniProt P22629); assay: spores (in vivo), streptavidin-coated magnetic beads, washed, plated
[4] = biological target: streptavidin (streptavidin-coated magnetic beads, Dynal) (UniProt P22629); assay: spores incubated in vitro with BirA, biotin and ATP, then streptavidin-coated beads
[5] = biological target: streptavidin (streptavidin-coated magnetic beads, Dynal) (UniProt P22629); assay: spores biotinylated in vivo, streptavidin-coated magnetic beads, washed, plated
[6] = biological target: streptavidin (streptavidin-coated magnetic beads, Dynal) (UniProt P22629); assay: spores incubated in vitro with BirA, biotin and ATP, then streptavidin-coated beads; input 176,900
[7] = biological target: streptavidin (streptavidin-coated magnetic beads, Dynal) (UniProt P22629); assay: spores biotinylated in vivo, streptavidin-coated magnetic beads, washed, plated; input 919,300
[8] = biological target: streptavidin (streptavidin-coated magnetic beads, Dynal) (UniProt P22629); assay: spores biotinylated in vivo, streptavidin-coated magnetic beads, washed, plated; input 10,000
[9] = biological target: streptavidin (streptavidin-coated magnetic beads, Dynal) (UniProt P22629); assay: phage incubated with streptavidin-coated beads, washed, released with Factor Xa, plated on TG1 cells; 96,500 phage used
[10] = biological target: streptavidin (streptavidin-coated magnetic beads, Dynal) (UniProt P22629); assay: phage incubated with streptavidin-coated beads, washed, released with Factor Xa, plated on TG1 cells
[11] = biological target: streptavidin (streptavidin-coated magnetic beads, Dynal) (UniProt P22629); assay: streptavidin-coated beads capture; phage from host cells grown without added biotin
[12] = biological target: streptavidin (streptavidin-coated magnetic beads, Dynal) (UniProt P22629); assay: streptavidin-coated beads capture; phage from host cells grown without added biotin; 109,000 phage used
[13] = biological target: modified streptavidin Stv-38; assay: phage on microtiter wells coated with Stv-38, washed, eluted with 3 mM biotin, plated on TG1 cells
[14] = biological target: modified streptavidin Stv-38; assay: phage on microtiter wells coated with Stv-38, washed, eluted with 3 mM biotin, plated on TG1 cells; input 250,000
[15] = biological target: streptavidin (streptavidin-coated magnetic beads, Dynal) (UniProt P22629); assay: spores incubated in vitro with BirA, biotin and ATP, then streptavidin-coated beads; input 234,900
[16] = biological target: streptavidin (streptavidin-coated magnetic beads, Dynal) (UniProt P22629); assay: spores (in vivo), streptavidin-coated magnetic beads, washed, plated; input 814,900
[17] = biological target: streptavidin (streptavidin-coated magnetic beads, Dynal) (UniProt P22629); assay: spores incubated in vitro with BirA, biotin and ATP, then streptavidin-coated beads; input 919,600
[18] = biological target: streptavidin (streptavidin-coated magnetic beads, Dynal) (UniProt P22629); assay: spores biotinylated in vivo, streptavidin-coated magnetic beads, washed, plated; input 1,075,900
[19] = biological target: modified streptavidin Stv-38; assay: phage on microtiter wells coated with Stv-38, washed, eluted with 3 mM biotin, plated on TG1 cells; input 159,500
[20] = biological target: modified streptavidin Stv-38; assay: phage on microtiter wells coated with Stv-38, washed, eluted with 3 mM biotin, plated on TG1 cells; input 1,590,500
[21] = biological target: streptavidin (streptavidin-coated magnetic beads, Dynal) (UniProt P22629); assay: phage incubated with streptavidin-coated beads, washed, released with Factor Xa, plated on TG1 cells; 97,500 phage used

bacteriophage G (M13 phage displaying on pIII the control peptide with the lysine recognized by BirA replaced by glycine), sequence (P69168 19-424): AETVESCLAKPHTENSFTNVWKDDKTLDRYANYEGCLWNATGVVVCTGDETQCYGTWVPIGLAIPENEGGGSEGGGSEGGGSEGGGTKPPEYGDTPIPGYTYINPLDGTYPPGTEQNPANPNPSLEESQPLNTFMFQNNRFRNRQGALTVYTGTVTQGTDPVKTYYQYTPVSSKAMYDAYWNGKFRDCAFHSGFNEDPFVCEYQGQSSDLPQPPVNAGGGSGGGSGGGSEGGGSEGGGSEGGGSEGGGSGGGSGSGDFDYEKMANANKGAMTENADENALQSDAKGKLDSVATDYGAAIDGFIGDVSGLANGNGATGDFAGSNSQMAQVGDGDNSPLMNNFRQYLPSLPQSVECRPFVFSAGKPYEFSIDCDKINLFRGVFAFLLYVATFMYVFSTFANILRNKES
bacteriophage K (M13 phage displaying on coat protein pIII the 33-residue peptide recognized by BirA), sequence (P69168 19-424): as above
streptavidin (streptavidin-coated magnetic beads, Dynal), sequence (P22629 37-163 limits assumed): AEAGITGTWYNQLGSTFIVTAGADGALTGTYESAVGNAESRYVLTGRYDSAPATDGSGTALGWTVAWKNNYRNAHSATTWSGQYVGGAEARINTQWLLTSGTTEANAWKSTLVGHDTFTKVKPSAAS
spores of PY79-BirA-3K (Fusion 3: Fusion 1 with peptide-K, with the last 41 amino acids of CotB added to its C-terminus), sequence (P07789 whole entry, the tested form may be a part): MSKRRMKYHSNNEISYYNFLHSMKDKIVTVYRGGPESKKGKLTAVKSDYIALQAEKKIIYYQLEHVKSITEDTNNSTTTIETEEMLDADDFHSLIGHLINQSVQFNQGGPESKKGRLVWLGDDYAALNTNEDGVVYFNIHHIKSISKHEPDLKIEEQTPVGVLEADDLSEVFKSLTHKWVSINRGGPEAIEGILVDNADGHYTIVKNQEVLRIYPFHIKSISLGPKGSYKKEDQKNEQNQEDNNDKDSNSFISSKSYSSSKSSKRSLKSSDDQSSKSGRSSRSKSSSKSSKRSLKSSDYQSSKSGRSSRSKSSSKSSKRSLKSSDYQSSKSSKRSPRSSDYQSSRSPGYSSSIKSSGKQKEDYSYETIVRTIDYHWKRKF
spores of PY79-BirA-3G (Fusion 3: Fusion 1 with peptide-G, with the last 41 amino acids of CotB added to its C-terminus), sequence (P07789 whole entry, the tested form may be a part): as above
spores of PY79-BirA-1G (Fusion 1: peptide-G added to the C-terminus of CotB following residue 275), sequence (P07789 1-275): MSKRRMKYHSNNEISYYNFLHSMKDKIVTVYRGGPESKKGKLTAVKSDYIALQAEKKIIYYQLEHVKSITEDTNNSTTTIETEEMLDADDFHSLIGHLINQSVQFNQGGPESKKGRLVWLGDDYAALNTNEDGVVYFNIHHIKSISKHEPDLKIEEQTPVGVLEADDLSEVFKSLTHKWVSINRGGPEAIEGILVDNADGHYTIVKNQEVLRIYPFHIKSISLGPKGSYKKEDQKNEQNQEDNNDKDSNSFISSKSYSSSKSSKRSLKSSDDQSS
spores of PY79-BirA-1K (Fusion 1: peptide-K added to the C-terminus of CotB following residue 275), sequence (P07789 1-275): as above
spores of PY79-BirA-2K (Fusion 2: peptide-K at the amino end of the first 275 amino acids of CotB), sequence (P07789 1-275): as above
spores of PY79-BirA-2G (Fusion 2: peptide-G at the amino end of the first 275 amino acids of CotB), sequence (P07789 1-275): as above

“spores of PY79-BirA-1G (Fusion 1: peptide-G added to the C-terminus of CotB following residue 275) (from UniProt P07789 1-275)” was tested, and the Out [1] was 1250 spores, the Out (#) [2] was 100 spores and the Ratio (%) [3] was 0.0118%. It also gave a Ratio (%) [4] of 0.299%.

With “spores of PY79-BirA-3K (Fusion 3: Fusion 1 with peptide-K, with the last 41 amino acids of CotB added to its C-terminus) (from UniProt P07789 1-275; P07789 340-380)” the Ratio (%) [5] was 0.0283%, the Out [6] was 125 spores and the Ratio (%) [4] was 0.071%. It also gave an Out (#) [7] of 260 spores.

“spores of PY79-BirA-2K (Fusion 2: peptide-K at the amino end of the first 275 amino acids of CotB) (from UniProt P07789 1-275)” gave a Ratio (%) [5] of 9.2% and an Out (#) [8] of 920 spores.

Substance “bacteriophage K (M13 phage displaying on coat protein pIII the 33-residue peptide recognized by BirA) (from UniProt P69168 19-424)” has a # of bound phage able to bind TG1 cells [9] of 1080 phage, a % bound [10] of 1.11% and a % bound [11] of 0.78%. For the same substance, the # of bound phage [12] was 850 phage, the Ratio (%) [13] was 0.504% and 0.852% and the Bound [14] was 2130 phage.

Substance “spores of PY79-BirA-3G (Fusion 3: Fusion 1 with peptide-G, with the last 41 amino acids of CotB added to its C-terminus) (from UniProt P07789 1-275; P07789 340-380)” has an Out [15] of 250 spores, an Out (#) [16] of 240 spores and a Ratio (%) [3] of 0.0049%. The Ratio (%) [4] was 0.106%.

In the case of “spores of PY79-BirA-1K (Fusion 1: peptide-K added to the C-terminus of CotB following residue 275) (from UniProt P07789 1-275)”, the Ratio (%) [5] is reported as 0.0279%, the Out [17] is reported as 30000 spores and the Out (#) [18] is reported as 300 spores. For the same substance, the Ratio (%) [4] was 3.26%.

With “spores of PY79-BirA-2G (Fusion 2: peptide-G at the amino end of the first 275 amino acids of CotB) (from UniProt P07789 1-275)” the Ratio (%) [3] was 0%.

“bacteriophage G (M13 phage displaying on pIII the control peptide with the lysine recognized by BirA replaced by glycine) (from UniProt P69168 19-424)” gave a % bound [10] of 0.013%, a Bound [19] of 7 phage and a Bound [20] of 27 phage. For the same substance, the Ratio (%) [13] was 0.002% and 0.004% and the # of bound phage able to bind TG1 cells [21] was 13 phage.
